One may read the Kd as the constant that tells how readily two partners part at equilibrium. Low readings indicate tighter binding, high ones weaker binding.

Where a chain is given by its changes, count along the chain named.

The record followed here is patent US20240010701A1 (ALX ONCOLOGY, published 2024).

Experiment [1] deals with T1, hFcγIIa-H131 (human, UniProt P12318 34-217).
T1 construct: extracellular domain; H at position 131 of the H/R131 polymorphism; also called hFcγRIIa (CD32a) H131
T1 sequence (looked up): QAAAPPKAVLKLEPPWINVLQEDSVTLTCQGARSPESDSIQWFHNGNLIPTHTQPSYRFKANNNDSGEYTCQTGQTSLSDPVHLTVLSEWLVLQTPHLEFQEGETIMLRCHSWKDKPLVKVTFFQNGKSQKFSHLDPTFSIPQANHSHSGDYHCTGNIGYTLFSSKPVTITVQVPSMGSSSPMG
Briefly: SPR (Biacore 8K), 25° C, antibody captured on nectin-4-coated chip, receptor ECD as analyte, steady-state analysis. An excerpt: (§1) The data was processed and analyzed with Biacore 8K Evaluation Software Version 3.0.12.15655 (Cytiva, Global Life Sciences Solutions USA LLC, Marlborough, MA). Reference responses from flow cell 1 were subtracted from the active responses from flow cell 2 to obtain the subtracted data (2-1). The responses from the nearest buffer blank injection were then subtracted from the reference subtracted data (2-1) to yield double-referenced data. For hFcγRI, these double-reference data were fit to a simple 1:1 Langmuir binding model with mass transport to determine the apparent association (ka) and dissociation rate constants (kd). The apparent equilibrium dissociation constant or affinity constant was then calculated based on their ratio as (KD=kd/ka). Binding affinity KD values for all the other hFcγR interactions (hFcγIIa-H131, hFcγIIa-R131, hFcγIIIa, and FcγIIIaV158F) were analyzed using a “steady state” (or “equilibrium binding”) method due to their fast on rates and fast off rates.
A general note: SPR reads the build-up and loss of mass on a sensor chip optically.

The target of experiment [2] is T2, hFcγIIa-R131 (human, UniProt P12318 36-218).
T2 construct: extracellular domain; Position 131 is the customary mature-protein numbering, not the precursor numbering of the database entry; also called hFcγRIIa (CD32a) R131
T2 sequence (looked up): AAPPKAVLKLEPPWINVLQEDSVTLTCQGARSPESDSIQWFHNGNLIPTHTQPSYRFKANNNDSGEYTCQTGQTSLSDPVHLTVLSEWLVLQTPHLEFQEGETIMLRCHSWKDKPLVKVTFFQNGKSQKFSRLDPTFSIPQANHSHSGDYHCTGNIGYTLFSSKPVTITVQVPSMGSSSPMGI
The description is as above.
Text: as §1

For experiment [3], the target named is T3, hFcRn ECD protein (human, UniProt P55899 24-297; P61769 21-119).
T3 construct: extracellular domain; also called human FcRn; neonatal Fc receptor
Briefly: SPR (Biacore 8K), 25° C, PBS pH 5.8, antibody captured on nectin-4-coated chip, hFcRn ECD as analyte, steady-state analysis. The protocol:
(§2) All experiments were performed at 25° C. using a Biacore 8K equipped with S-type sensor chips and the kinetics data analyses were done using the Biacore Insight Evaluation Software. The running buffer was PBS pH 5.8 with 0.01% Tween-20 for hFcRn interactions and the running buffer for capture was HBS-EP+. Analyte hFcRn ECD protein was used at its nominal concentrations. A “single cycle kinetics” injection mode was used.
(§3) The interactions of DRUG B and DRUG C with hFcRn were analyzed by flowing the hFcRn ECD protein over DRUG B or DRUG C captured on a nectin-4-coated CMS chip. Up to 2400 RU of human nectin-4 ECD were immobilized on both flow cells (1 and 2) of a CMS chip using amine chemistry following Cytiva amine coupling kit instructions. DRUG B or DRUG C were captured on flow cell 2 of each channel for 120 seconds at 10 μL/min at […] in HBS-EP+(100-200 RUs) in a surface preparation method. The hFcRn run was done in PBS pH 5.8 with 0.01% Tween-20. […] Association and dissociation times were monitored for 120s and 600s, respectively. […]
(§4) The data was processed and analyzed with Biacore 8K Evaluation Software Version 3.0.12.15655 (Cytiva, Global Life Sciences Solutions USA LLC, Marlborough, MA). […] Binding affinity KD values were analyzed using a “steady state” (or “equilibrium binding”) method due to their fast on rates and fast off rates.

Experiment [4] addresses T4, hFcγIa (human, UniProt P12314 16-292).
T4 construct: extracellular domain; also called hFcγRI; CD64
Briefly: SPR (Biacore 8K), 25° C, antibody captured on nectin-4-coated chip, receptor ECD as analyte, single-cycle kinetics, 1:1 fit.
Text: as §1

Experiment [5] deals with T5, human Nectin-4 extracellular domain (ECD) with C-terminal His6 (human, UniProt Q96NY8 32-349).
T5 construct: also called human Nectin-4-ECD; human nectin-4 ECD
T5 sequence: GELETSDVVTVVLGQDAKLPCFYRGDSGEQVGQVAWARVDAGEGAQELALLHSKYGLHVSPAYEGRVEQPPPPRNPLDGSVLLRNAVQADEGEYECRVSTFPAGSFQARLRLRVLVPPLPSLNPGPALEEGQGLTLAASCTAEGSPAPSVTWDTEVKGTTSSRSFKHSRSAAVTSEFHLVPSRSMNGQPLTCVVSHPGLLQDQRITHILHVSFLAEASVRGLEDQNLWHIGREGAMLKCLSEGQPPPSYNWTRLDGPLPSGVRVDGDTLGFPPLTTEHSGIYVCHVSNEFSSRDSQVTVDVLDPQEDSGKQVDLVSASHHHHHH
In words: SPR (Biacore 8K), DRUG B captured on Protein A chip, nectin-4-ECD as analyte, single-cycle kinetics, 1:1 fit, 37° C; 37° C., human nectin-4-ECD. The protocol:
(§5) Kinetic injection method used was “single cycle kinetics” (also known as “kinetic titration”) (Karlsson et al. (2006) Analytical Biochemistry. 349(1):136-147).
(§6) The interactions of DRUG B, i.e., an anti-Nectin-4 monoclonal antibody, with the extracellular domain (ECD) of human nectin-4 were analyzed by flowing nectin-4-ECD over DRUG B captured (200-400 RUs) on Biacore Series S Sensor Chip Protein A. DRUG B, at ˜1 μg/mL concentration was captured in flow cell 2 of each channel at flow rate 10 μL/min for 60 seconds (s) contact time while buffer was used for Flow cell 1 respectively. The human nectin-4-ECD analytes were prepared as a 5-membered 3-fold dilution series with top nominal concentration of 300 nM, and each analyte series was injected in order of ascending concentration using a single-cycle kinetics method. Association and dissociation times were monitored for 120s and 1800s, respectively, at 30 μL/min flow rate. The surfaces were regenerated with 75 mM phosphoric acid at pH 1.6 using two pulses of 15s at 30 μL/min flow rate.
(§7) To analyze the data, the following processing steps were applied. Reference responses from flow cell 1 (reference surface) were subtracted from the active responses from flow cell 2 (reaction surface) to obtain the subtracted data (2-1). […]

Experiment [6] deals with T6, cynomolgus Nectin-4 extracellular domain (ECD) with C-terminal His6 (cynomolgus, UniProt Q96NY8 32-349 (human entry)).
T6 construct: also called Cyno Nectin-4-ECD; cynomolgus nectin-4-ECD
T6 chain: T5 sequence with V39A, I230V
In words: SPR (Biacore 8K), DRUG B captured on Protein A chip, nectin-4-ECD as analyte, single-cycle kinetics, 1:1 fit, 25° C; 25° C., cynomolgus nectin-4-ECD.

Experiment [7] has as its target T6, cynomolgus Nectin-4 extracellular …. In words: SPR (Biacore 8K), DRUG B captured on Protein A chip, nectin-4-ECD as analyte, single-cycle kinetics, 1:1 fit, 37° C; 37° C., cynomolgus nectin-4-ECD.
In experiment [8] the target is T5, human Nectin-4 extracellular domain …. In words: SPR (Biacore 8K), DRUG B captured on Protein A chip, nectin-4-ECD as analyte, single-cycle kinetics, 1:1 fit; temperature dropped in the text, 25° C by context; 25° C. (by context; temperature dropped in the text), human nectin-4-ECD. The protocol: as §5, §6, §7
For experiment [9] the target is unchanged. Briefly: SPR, capture on chip with immobilized human nectin-4 ECD (FcγR runs).
For experiment [10], the target named is T1, hFcγIIa-H131. In words: SPR (Biacore 8K), 25° C, ADC captured on nectin-4-coated chip, receptor ECD as analyte, steady-state analysis.
Text: as §1

Experiment [11] deals with T2, hFcγIIa-R131. Described as above.
Text: as §1

For experiment [12], the target named is T4, hFcγIa. Briefly: SPR (Biacore 8K), 25° C, ADC captured on nectin-4-coated chip, receptor ECD as analyte, single-cycle kinetics, 1:1 fit.
Text: as §1

Experiment [13] deals with T3, hFcRn ECD protein. Briefly: SPR (Biacore 8K), 25° C, PBS pH 5.8, ADC captured on nectin-4-coated chip, hFcRn ECD as analyte, steady-state analysis. The protocol: as §2, §3, §4

T4 sequence (P12314 16-292): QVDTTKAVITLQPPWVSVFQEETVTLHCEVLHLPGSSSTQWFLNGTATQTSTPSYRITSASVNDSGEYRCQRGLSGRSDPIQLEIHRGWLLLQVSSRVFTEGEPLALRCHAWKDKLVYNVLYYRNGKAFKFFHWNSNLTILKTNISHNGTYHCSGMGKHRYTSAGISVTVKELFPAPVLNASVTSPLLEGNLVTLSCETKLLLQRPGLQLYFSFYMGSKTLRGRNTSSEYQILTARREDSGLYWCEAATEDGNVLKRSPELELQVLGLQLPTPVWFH
T3 sequence (P55899 24-297 limits assumed, chain 1 of 2): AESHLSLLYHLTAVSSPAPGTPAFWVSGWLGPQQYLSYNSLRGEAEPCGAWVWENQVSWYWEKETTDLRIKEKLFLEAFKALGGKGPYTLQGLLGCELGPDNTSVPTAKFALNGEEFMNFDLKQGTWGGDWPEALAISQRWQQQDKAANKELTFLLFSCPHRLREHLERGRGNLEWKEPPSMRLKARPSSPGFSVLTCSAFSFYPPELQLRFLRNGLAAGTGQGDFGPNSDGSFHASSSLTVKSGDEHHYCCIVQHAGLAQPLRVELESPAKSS
T3 sequence (P61769 21-119 limits assumed, chain 2 of 2): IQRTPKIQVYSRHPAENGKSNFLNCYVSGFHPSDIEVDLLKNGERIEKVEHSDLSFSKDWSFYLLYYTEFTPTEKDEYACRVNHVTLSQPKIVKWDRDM

B1: DRUG B (enfortumab similar antibody that specifically binds human nectin-4) (antibody, human IgG1, kappa)
heavy: not shown
light: DIQMTQSPSSVSASVGDRVTITCRASQGISGWLAWYQQKPGKAPKFLIYAASTLQSGVPSRFSGSGSGTDFTLTISSLQPEDFATYYCQQANSFPPTFGGGTKVEIKRTVAAPSVFIFPPSDEQLKSGTASVVCLLNNFYPREAKVQWKVDNALQSGNSQESVTEQDSKDSTYSLSSTLTLSKADYEKHKVYACEVTHQGLSSPVTKSFNRGEC
notes: Expressed in Expi293F cells, about 99% monomer; also called enfortumab similar Ab; Enfortumab similar mAb
For B1, the Kd in experiment [1] was 772 nM; in [2], 783 nM; in experiment [3], 767 nM; in experiment [4], 0.056 nM; in experiment [5] it was around 36.3 nM; in [6], around 22.6 nM. Besides, the results for the equilibrium dissociation constant (Kd) in experiment [7] and in [8] were around 50.7 nM and around 14.5 nM, respectively.

B2: DRUG C (enfortumab vedotin similar antibody-drug conjugate) (antibody, human IgG1, kappa)
heavy: not shown
light: B1 light
modifications: MC-Val-Cit-PAB-MMAE linker-payload conjugated via interchain cysteines of the antibody; average drug-to-antibody ratio 3.85:1
notes: DRUG B conjugated to MC-Val-Cit-PAB-MMAE; also called enfortumab vedotin similar ADC; copies: 2 + 2
B2: the binding result in [9] is given as “binds”. In addition, the dissociation constant Kd in [10] amounted to 921 nM; in [11], 846 nM; in experiment [12] it was 0.091 nM; in experiment [13] it was 812 nM.
